# Measurements reported in patent publication US20170037106A1 (FLOREY INSTITUTE OF NEUROSCIENCE AND MENTAL HEALTH, published 2017).
# Square brackets hold non-standard residues; d marks the D form. Ends that are not written are not given here. hArg = N=C(N)NCCCC[C@H](N)C(=O)O
# T1: RXFP1 (LGR7) receptor, on stably transfected HEK-293T cells (UniProt Q9HBX9 1-757, limits assumed)
# T1 sequence (looked up): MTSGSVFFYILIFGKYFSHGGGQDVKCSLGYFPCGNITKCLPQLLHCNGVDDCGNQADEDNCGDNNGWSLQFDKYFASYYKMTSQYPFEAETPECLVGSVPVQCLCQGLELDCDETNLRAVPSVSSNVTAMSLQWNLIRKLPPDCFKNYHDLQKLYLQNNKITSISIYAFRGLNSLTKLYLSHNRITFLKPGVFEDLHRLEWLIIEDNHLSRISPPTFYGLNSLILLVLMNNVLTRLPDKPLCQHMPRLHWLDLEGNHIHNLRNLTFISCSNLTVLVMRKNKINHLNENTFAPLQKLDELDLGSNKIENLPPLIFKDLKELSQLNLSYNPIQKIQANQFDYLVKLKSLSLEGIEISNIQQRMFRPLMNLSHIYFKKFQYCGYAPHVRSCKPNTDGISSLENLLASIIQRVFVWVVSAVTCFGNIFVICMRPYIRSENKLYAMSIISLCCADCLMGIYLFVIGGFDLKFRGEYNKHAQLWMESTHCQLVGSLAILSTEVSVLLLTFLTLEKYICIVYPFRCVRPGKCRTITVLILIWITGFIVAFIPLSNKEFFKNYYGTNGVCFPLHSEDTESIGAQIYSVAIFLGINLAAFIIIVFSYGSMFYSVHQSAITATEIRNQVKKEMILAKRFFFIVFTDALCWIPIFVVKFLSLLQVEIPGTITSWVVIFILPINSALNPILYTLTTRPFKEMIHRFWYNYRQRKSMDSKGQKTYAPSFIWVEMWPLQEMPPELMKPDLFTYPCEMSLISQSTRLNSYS
# T2: 7BP: fusion protein comprising the extracellular domain of RXFP1 and the transmembrane domain of CD8, on cells (UniProt Q9HBX9 1-409)
# T2 construct: extracellular domain;domain: transmembrane domain; also called 7BP cells; not shown: transmembrane domain of CD8
# T2 sequence (looked up): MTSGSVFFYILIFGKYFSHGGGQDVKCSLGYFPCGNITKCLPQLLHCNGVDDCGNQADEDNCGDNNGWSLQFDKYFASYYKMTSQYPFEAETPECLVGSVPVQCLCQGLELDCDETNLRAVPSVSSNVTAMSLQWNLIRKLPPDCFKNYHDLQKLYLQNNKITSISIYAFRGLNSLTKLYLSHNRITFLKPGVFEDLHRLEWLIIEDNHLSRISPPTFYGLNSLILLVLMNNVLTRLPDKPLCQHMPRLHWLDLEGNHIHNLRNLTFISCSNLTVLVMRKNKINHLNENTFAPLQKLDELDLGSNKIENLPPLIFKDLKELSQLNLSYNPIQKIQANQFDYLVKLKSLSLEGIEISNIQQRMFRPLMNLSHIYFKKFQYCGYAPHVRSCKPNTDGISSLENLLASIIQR
# T3: RXFP1 (LGR7) receptor, on stably transfected HEK-293T cells (UniProt Q9HBX9)
# T3 sequence (looked up): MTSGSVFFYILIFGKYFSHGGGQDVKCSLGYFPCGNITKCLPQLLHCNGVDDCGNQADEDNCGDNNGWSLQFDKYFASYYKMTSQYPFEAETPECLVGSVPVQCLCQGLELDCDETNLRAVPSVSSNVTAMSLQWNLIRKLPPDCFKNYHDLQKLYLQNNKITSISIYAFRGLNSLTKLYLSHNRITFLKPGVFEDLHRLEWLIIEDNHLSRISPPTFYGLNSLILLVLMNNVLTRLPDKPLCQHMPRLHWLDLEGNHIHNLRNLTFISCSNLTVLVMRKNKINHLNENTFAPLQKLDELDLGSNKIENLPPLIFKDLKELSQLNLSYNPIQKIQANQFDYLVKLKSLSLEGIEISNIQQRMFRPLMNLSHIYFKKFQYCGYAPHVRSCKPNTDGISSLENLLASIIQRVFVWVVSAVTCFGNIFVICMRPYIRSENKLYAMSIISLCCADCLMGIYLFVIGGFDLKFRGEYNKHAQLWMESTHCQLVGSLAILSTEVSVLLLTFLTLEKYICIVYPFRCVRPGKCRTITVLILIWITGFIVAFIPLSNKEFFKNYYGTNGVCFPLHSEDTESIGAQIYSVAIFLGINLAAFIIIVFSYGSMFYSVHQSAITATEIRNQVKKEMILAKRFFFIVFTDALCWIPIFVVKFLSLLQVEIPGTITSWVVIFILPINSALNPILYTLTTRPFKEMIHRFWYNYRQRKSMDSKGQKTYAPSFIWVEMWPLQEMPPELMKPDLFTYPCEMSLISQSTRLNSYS
# Key:
# [1] = target: T1, RXFP1 (LGR7) receptor, on stably …; assay: cell-based or functional assay
# [2] = target: T2, 7BP: fusion protein comprising the …; assay: Eu-H2 relaxin competition on 7BP cells
# [3] = target: T1, RXFP1 (LGR7) receptor, on stably …; assay: Eu-H2 relaxin competition, whole HEK-293T cells stably expressing RXFP1
# Experimental: Human embryonic kidney (HEK-293T) cells stably transfected with RXFP1 were cultured in RPMI 1640 medium supplemented with 10% fetal calf serum, 100 μg/ml penicillin, 100 μg/ml streptomycin and 2 mM L-glutamine and plated into 96-well pre-coated with poly-L-lysine for whole cell binding assays. Competition binding experiments were conducted with Eu³⁺-labelled H2 relaxin (as per Shabanpoor et al., 2012, Biochem Biophys Res Commun. 420, 253-256) in the absence or presence of increasing concentrations of unlabelled relaxin-2 B chain derivatives. Nonspecific binding was determined with an excess of unlabelled peptides (500 nM H2 relaxin). Fluorescent measurements were recorded at an excitation wavelength of 340 nm and emission of 614 nm on a Victor plate reader (Perkin-Elmer Inc.). […] Statistical differences in pIC₅₀ values were analyzed using one-way analysis of variance coupled to Newman Keul's multiple comparison test for multiple group comparisons in GraphPad Prism 6.
# #p < 0.001 vs H2 relaxin ¹Data are presented as the mean ± S.E of the percentage of the total specific binding of triplicate wells, repeated in at least three separate experiments, and curves were fitted using one-site binding curves in GraphPad Prism 6 (GraphPad Inc, San Diego, CA).
# [4] = target: T3, RXFP1 (LGR7) receptor, on stably transfected HEK-293T cells; assay: cell-based or functional assay
Binder,cAMP pEC50 [1],pKi [2],pKi [3],cAMP pEC50 [4]
VIKLSGRELV[hArg]AQIAISGMSTWSKRSL-NH2 (N-terminus assumed; SMILES CC[C@H](C)[C@H](NC(=O)[C@H](C)NC(=O)[C@@H](NC(=O)[C@H](CCC(N)=O)NC(=O)[C@H](C)NC(=O)[C@H](CCCCNC(=N)N)NC(=O)[C@@H](NC(=O)[C@H](CC(C)C)NC(=O)[C@H](CCC(=O)O)NC(=O)[C@H](CCCNC(=N)N)NC(=O)CNC(=O)[C@H](CO)NC(=O)[C@H](CC(C)C)NC(=O)[C@H](CCCCN)NC(=O)[C@@H](NC(=O)[C@@H](N)C(C)C)[C@@H](C)CC)C(C)C)[C@@H](C)CC)C(=O)N[C@@H](CO)C(=O)NCC(=O)N[C@@H](CCSC)C(=O)N[C@@H](CO)C(=O)N[C@H](C(=O)N[C@@H](Cc1c[nH]c2ccccc12)C(=O)N[C@@H](CO)C(=O)N[C@@H](CCCCN)C(=O)N[C@@H](CCCNC(=N)N)C(=O)N[C@@H](CO)C(=O)N[C@@H](CC(C)C)C(N)=O)[C@@H](C)O) [B7-33 C11.23S R17HR],< 5 log M,,6.52 log M,
VIKLSGRELVRAQIAISGMSTWS-NH2 [B7-29 C11.23S],< 5 log M,,,
DSWMEEVIKLCGRELVRAQIAICGMSTWSKRSL-NH2 (not fully specified (bridges); printed as DSWMEEVIKLCGRELVRAQIAICGMSTWSKRSL-NH2; cysteine pairing not given here) [B1-33ox],< 5 log M,,6.61 log M,
DSWMEEVIKLSGRELVRAQIAISGMSTWSKRSL-NH2 [B1-33 C11.23S],5.1 log M,,5.33 log M,
"VIKLCGRELVRAQIAICGMSTWSKRSL-NH2 (not fully specified; printed as VIKLCGRELVRAQIAICGMSTWSKRSL-NH2; also: oxidised (ox), disulfide pattern not described, also called B7-33ox) [Native B7-33]",5.11 log M,,6.15 log M,
Ac-VIKLSGAELVAAQAAISGMSTWSKRSL-NH2 [R13/17A I20A (AcB7-33 C11.23S)],,5.54 log M,,< 5 log M
Ac-VIKLSGRELVAAQIAISGMSTWSKRSL-NH2 [R17A (AcB7-33 C11.23S)],,6.01 log M,,< 5 log M
Ac-VIKLSGAELVRAQIAISGMSTWSKRSL-NH2 [R13A (AcB7-33 C11.23S)],,5.76 log M,,< 5 log M
VIKLSGRELVKAQIAISGMSTWSKRSL-NH2 [B7-33 C11.23S R17K],< 5 log M,,,

# Next, values leading:
cAMP pEC50 [1],pKi [2],pKi [3],cAMP pEC50 [4],Binder
10.5 log M,8.97 log M,8.96 log M,,"native H2 relaxin (human relaxin-2, heterodimer of A chain and B1-29 B chain) (ligand, disulfide (positions not given here); ends not checked; also: three disulfides (two inter-chain, one within A chain), places not given here, mature; Two chains linked by three disulfide bonds (two inter-chain, one within the A chain); also called native human relaxin-2; Eu^3+-labelled H2 relaxin (tracer form)) chain 1: QLYSALANKCCHVGCTKRSLARFC chain 2: DSWMEEVIKLCGRELVRAQIAICGMSTWS"
5.81 log M,8.91 log M,6.25 log M,,Ac-VIKLSGRELVRAQIAISGMSTWSKKKK-NH2 (AcB7-29 C11.23S with KKKK at the C-terminus in place of KRSL) [KKKK (AcB7-29 C11.23S)]
5.4 log M,7.54 log M,6 log M,,Ac-VIKLSGRELVRAQIAISGMSTWSKRSL-NH2 [AcB7-33 C11.23S]
< 5 log M,,,,Ac-VIKLSGRELVRAQAAISGMSTWSKRSL-NH2 [I20A (AcB7-33 C11.23S)]
5.12 log M,7.65 log M,5.54 log M,,VIKLSGRELVRAQIAISGMSTWSKRSL-NH2 (also called single chain B7-33 C11.23S peptide) [Modified B7-33 (B7-33 C11.23S)]
